The supplement of paper PMC10567573

B1: FLOT1 (parent)
chain: QMAKKAEAFQLYQEAAQLDMLLEK
B2: ANKRD44 (parent)
chain: FHCIETLVTTGANVNETDDWGRTA

Variants of: B1
Assay: protein stability index of a GFP-peptide fusion (GPS, HEK-293T) (PSI 1-6); higher = more stable
Details: c terminus: a fixed tail appended
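Also: lentivirally expressed fusions sorted by FACS into six bins by GFP to DsRed ratio, PSI derived from sequencing read proportions per bin multiplied by bin number.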

Variant | protein stability index
A6H | 1.99
A6K | 2.43
A6R | 1.52
A6Y | 1.53
A6P | 2.37
A6T | 1.38
A6W | 2.21
A6V | 1.75
A6N | 3.7
A6Q | 1.91
A6M | 1.32
A8P | 1.98
A8I | 2.05
A8W | 1.91
A8L | 2.55
A8M | 2.88
A8N | 1.4
A8S | 1.49
A8Q | 1.64
A8C | 1.7
A8F | 3.96
A8V | 1.2
A8Y | 1.03
A8T | 1.83
A8H | 1.42

Variant | protein stability index
A8E | 2.49
E23T | 1.51
E23H | 2.15
E23L | 2.21
E23V | 1.98
E23I | 1.62
E23W | 1.98
E23M | 1.28
E23Y | 1.81
E23K | 2.11
E23P | 3.12
E23R | 1.39
E23A | 2.29
E23D | 3.79
E23F | 1.72
E23Q | 1.75
E23G | 3.26
E23C | 2.27
E23S | 2.53
E23N | 2.35
A16Q | 3.31
A16H | 3.3
A16N | 2.45
A16T | 1.85
A16L | 2.63

Variant | protein stability index
A16I | 1.44
A16K | 3.59
A16M | 2.79
A16E | 3.98
A16Y | 1.93
A16V | 1.1
A16S | 3.68
A16R | 3.45
A16D | 3.24
A16G | 4.14
A16P | 4.27
A16W | 1.35
E7C | 1.86
E7N | 2.05
E7T | 1.36
E7S | 4
E7R | 1.22
E7Y | 1.8
E7H | 2.24
E7M | 1.64
E7P | 2.07
E7I | 1.4
E7D | 1.55
E7A | 2.46
E7L | 2.95

Variant | protein stability index
E7V | 1.91
L22W | 1.5
L22C | 2.42
L22P | 3.9
L22E | 1.61
L22N | 2.03
L22D | 2.54
L22A | 1.32
L22I | 1.72
L22G | 3.76
L22Q | 2.08
L22H | 2.48
L22F | 2.23
L22T | 3.36
L22Y | 1.5
L22M | 2.02
L22R | 2.42
L22K | 3.07
L22V | 2.33
L22S | 2.63
F9L | 2.37
F9K | 2.63
F9H | 2.26
F9N | 1.82
F9M | 1.72

Variant | protein stability index
F9C | 1.41
F9W | 1.86
F9I | 1.88
F9T | 2.11
F9A | 2
F9D | 3.04
F9Q | 1
F9P | 2.08
F9S | 2.01
F9E | 3.65
E14K | 1.83
E14D | 2.13
E14T | 1.97
E14S | 2.03
E14W | 1.96
E14I | 3.03
E14C | 2.61
E14A | 1.3
E14Q | 1.36
E14L | 1.97
E14Y | 2.71
E14R | 2.21
E14N | 2.5
E14H | 1.94
E14P | 3.12

Variant | protein stability index
E14G | 2.58
L21V | 2.35
L21E | 2.7
L21C | 2.9
L21N | 3.38
L21Y | 2.04
L21Q | 1.75
L21H | 3.47
L21I | 2
L21F | 2.35
L21A | 2.09
L21M | 1.84
L21K | 2.19
L21T | 2.97
L21R | 3.19
L21S | 3.46
L21D | 2.58
L21W | 1.69
L21P | 4.51
L21G | 4.02
Q10E | 2.49
Q10C | 1.74
Q10R | 1.87
Q10N | 2.03
Q10M | 1.52

Variant | protein stability index
Q10L | 2.09
Q10F | 1.28
Q10T | 2.79
Q10S | 2.06
Q10V | 2.87
Q10G | 1.72
Q10P | 2.08
Q10K | 1.32
Q10D | 2.01
Q10A | 2.07
Q10Y | 2.59
Q10H | 2.03
L11H | 3.32
L11G | 1.76
L11D | 1.82
L11Y | 1.81
L11M | 1.59
L11F | 2.15
L11V | 2.98
L11S | 2.23
L11I | 2.85
L11C | 1.92
L11N | 2.1
L11K | 3.17
L11P | 4.05

Variant | protein stability index
L11E | 3.48
L11A | 2.03
D19Q | 1.83
D19H | 1.8
D19L | 1.24
D19C | 2.13
D19G | 1.48
D19F | 1.69
D19I | 1.5
D19T | 2.66
D19E | 1.87
D19P | 3.95
D19Y | 2.35
D19V | 3.13
D19M | 2.85
D19R | 1.53
D19S | 1.29
D19N | 1.91
D19A | 2.65
D19W | 1.34
D19K | 1.65
K24A | 2.53
K24T | 3.03
K24G | 2.89
K24W | 2.57

Variant | protein stability index
K24E | 4.03
K24C | 2.28
K24V | 1.73
K24S | 3.36
K24F | 2.2
K24H | 2.67
K24P | 3.37
K24N | 2.83
K24Y | 2.35
K24Q | 2.55
K24M | 2.23
K24I | 3.41
K24R | 2.13
K24L | 2.08
K24D | 3.76
Y12S | 4.55
Y12L | 2.03
Y12H | 2.98
Y12D | 4.96
Y12R | 4.75
Y12C | 3.06
Y12E | 4.41
Y12I | 2.62
Y12N | 4.47
Y12A | 4.22

Variant | protein stability index
Y12K | 4.88
Y12P | 5.08
Y12T | 4.17
Y12F | 1.67
Y12G | 4.56
M20I | 3.46
M20F | 2.25
M20E | 3.76
M20K | 2.55
M20V | 2.38
M20R | 2.98
M20N | 2.47
M20C | 1.97
M20G | 3.94
M20D | 4.03
M20T | 3.22
M20A | 2.75
M20P | 4.52
M20Q | 3.1
M20H | 2.94
M20L | 1.85
M20Y | 2.08
M20S | 3.69
L18A | 1.85
L18Y | 1.46

Variant | protein stability index
L18V | 1.85
L18H | 1.83
L18T | 3.56
L18F | 2.13
L18K | 2.9
L18E | 3.61
L18W | 2.03
L18D | 3.52
L18M | 2.22
L18I | 2.17
L18G | 3.8
L18N | 2.66
L18S | 2.51
L18P | 3.9
L18C | 3.66
Q13D | 4.08
Q13C | 2.46
Q13S | 1.8
Q13F | 1.52
Q13K | 2.62
Q13G | 3.57
Q13Y | 1.96
Q13N | 3.82
Q13P | 3.87
Q13M | 3.5

Variant | protein stability index
Q13R | 2.81
Q13T | 2.85
Q13E | 2.92
Q13L | 3.2
Q13H | 3.6
Q13I | 2.49
A15S | 2.49
A15W | 2.68
A15I | 2.1
A15C | 2.65
A15R | 2.92
A15M | 1.24
A15Q | 1.44
A15E | 4.04
A15P | 4.27
A15H | 2.2
A15V | 2.33
A15Y | 2.21
A15T | 2.76
A15N | 2.32
A15D | 4.62
A15F | 2.24
A15K | 1.56
Q17T | 1.19
Q17M | 1.02

Variant | protein stability index
Q17V | 1.14
Q17F | 2.6
Q17P | 3.95
Q17W | 4.61
Q17A | 1.47
Q17K | 1.65
Q17S | 1.88
Q17I | 1.72
Q17D | 3.81
Q17C | 1.71
Q17L | 1.58
Q17E | 1.89
Q17R | 2.46

Variants of: B2
Assay: as above
Details: c terminus: a fixed tail appended

Variant | protein stability index
D19V | 2.18
G21D | 2.71
G21Y | 1.92
N15Q | 2.18
T17Y | 1.9
T17L | 1.76
T17A | 1.92
I4P | 2.19
I4T | 2.87
L7Q | 2.49
R22Q | 2.7
C3Y | 2.19
H2F | 1.8
T23H | 2.42
N13L | 2.11
W20L | 3.26
T6V | 3.28
F1Q | 4.54
G11D | 2.88
T10W | 2.68
T10G | 1.92
